Data: publication PMC12294753, “Development of INER-PP-F11N as the Peptide-Radionuclide Conjugate Drug Against CCK2 Receptor-Overexpressing Tumors” (International Journal of Molecular Sciences, 2025)
“Also recorded” adds a separate entry of the source. Like-named read-outs stand apart in the source and are kept apart here. Where a SMILES comes first, the peptide text is derived from it. [ ]: non-standard residue; d: D form. The star is where a group is joined. DOTA = O=C(O)CN1CCN(CC(=O)O)CCN(CC(=O)*)CCN(CC(=O)O)CC1; Butanoyl(4-(4-MePh)) = Cc1ccc(CCCC(=O)*)cc1; Nle = CCCC[C@H](N)C(=O)O; Ahx = NCCCCCC(=O)O

What was measured:
[1] = tested on: A431-CCK2R (−)/A431-CCK2R (+) tumor-bearing mice; experiment: NanoSPECT/CT imaging of tumor-bearing mice; assay type: in vivo; conditions: for radiotracer accumulation in the tumor region on NanoSPECT/CT: tail-vein injection, Lu-177-labeled
Procedure: (§1) To generate A431-CCK2R (+) and A431-CCK2R (−) tumor-bearing mice models, mice (3 per group) were inoculated subcutaneously with 6 × 10^6 cells, which were injected into the inner right back leg for A431-CCK2R (+) tumors and the left back leg for A431-CCK2R (−) tumors, respectively. These xenografts were monitored until the tumor volume reached approximately 200–500 mm^3 [57]. The mice were then randomized to subgroups for further experiments. The formula for calculating tumor volume (V) is V = 4/3πr^3.
The NanoSPECT/CT® plus scanner system (Mediso Medical Imaging Systems; Budapest, Hungary) was utilized to detect in vivo tumors in the in vivo animal models. Both A431-CCK2R (+) and A431-CCK2R (−) cancer cells were inoculated subcutaneously into the inner right leg and left back leg of the mice. Radiopharmaceuticals—[^111In]In-DOTA-PP-F11N, [^111In]In-DOTA-INER-PP-F11N-1, and [^111In]In-DOTA-INER-PP-F11N-2 (1 mCi)—were injected once the mean tumor volume reached approximately 200–500 mm^3. Inhalant (1–2% isoflurane) was used to anesthetize the mice during imaging acquisition. X-ray CT images and SPECT images were taken 4, 24, and 48 h after tail-vein injection. NanoSPECT imaging was acquired using nine multi-pinhole gamma detectors with high-resolution collimators. The energy window was set at 171 and 245 KeV ± 10%, the image size was set at 256 × 256, and the field of view was set at 60 mm × 100 mm.
For Lu-177, only 208 keV photons were used for imaging, with an energy window set at 208 keV ± 10%. Although Lu-177 also emits lower abundance photons at 113 keV, the 208 keV photon provides better image quality due to reduced scatter and higher energy resolution. Therefore, the gamma camera energy windows were specifically tailored to the photon emission profiles of each radionuclide to ensure optimal detection efficiency and image accuracy.
(§2) We investigated therapeutic responses in mice receiving [^177Lu]Lu-DOTA-PP-F11N, [^177Lu]Lu-DOTA-INER-PP-F11N-1, or [^177Lu]Lu-DOTA-INER-PP-F11N-2. A431-CCK2R (+) and A431-CCK2R (−) cells were implanted subcutaneously into the right and left inner hind legs of NOD/SCID mice. Once the tumors reached a volume of 200–500 mm^3, the mice were intravenously injected with either 200 μCi of [^177Lu]Lu-DOTA-PP-F11N, [^177Lu]Lu-DOTA-INER-PP-F11N-1, [^177Lu]Lu-DOTA-INER-PP-F11N-2, or PBS (as a non-radioactive control). The NanoSPECT/CT® plus scanner system (Mediso Medical Imaging Systems; Budapest, Hungary) was utilized to detect and image tumors in the mouse models. Tumor volumes were measured twice a week for 4 weeks.

A431-CCK2R (+) tumors = experiment: Therapeutic responses to Lu-177-labeled CCK2R analogs in CCK2R-expressing cancer-bearing mice; assay type: in vivo; conditions: 200 μCi intravenously
Procedure: as §1, §2

A431-CCK2R (−) cells = experiment: In vitro binding and internalization assay, A431-CCK2R (−) cells; assay type: cell-based; conditions: 37 °C
Procedure: (§3) In vitro binding and internalization activities were measured using a gamma counter (WIZARD 1480, Perkin-Elmer). Briefly, A431-CCK2R (+) and A431-CCK2R (−) cells were seeded on 24-well plates (1 × 10^5 cells/well, Corning, NY, USA) for 12 h. The plated cells were treated with 30 ± 10 GBq/µmol of [^177Lu]Lu-DOTA-PP-F11N, [^177Lu]Lu-DOTA-INER-PP-F11N-1, or [^177Lu]Lu-DOTA-INER-PP-F11N-2 (1 mL/well) and then incubated at 37 °C for either 1 or 4 h. After incubation, the medium was collected, and the cells were then washed with ice-cold buffer. The medium and washed PBS were collected in tube 0. The washed cells were treated with glycine–HCl buffer (0.1 M, pH 3.0) and incubated for 10 min. After incubation, cells were washed again with glycine–HCl buffer. Both glycine-HCl buffer solutions were collected in tube 1. The washed cells were treated with 1 N NaOH (1 mL/well) and incubated for 10 min for cell lysis. After incubation, the cells were washed once with 1 N NaOH. The cell lysate solution was collected in tube 2. All tubes were analyzed using a gamma counter to detect radioactivity. Data were obtained from at least three independent experiments. The respective formulae for in vitro surface binding activity and internalization were as follows:Surface binding = tube 1/(tube 0 + tube 1 + tube 2) × 100%.Internalization = tube 2/(tube 0 + tube 1 + tube 2) × 100%.

[2] = Biodistribution study in tumor-bearing mice; assay type: in vivo; conditions: mouse, intravenous, total radioactivity, 72 h after tail-vein injection, tumor-bearing mice
Procedure: as §1
Mice were sacrificed via CO2 asphyxiation 72 h after intravenous injection of 50–100 μCi (50–100 μL) of radiolabeled DOTA-PP-F11N, DOTA-INER-PP-F11N-1, or DOTA-INER-PP-F11N-2 [58]. Tumors and organs of interest were collected for further pathological examinations. The PerkinElmer 2480 Automatic Gamma Counter (PerkinElmer, Waltham, MA, USA) was used to measure radioactivity; the data are presented as the percentage injected dose per gram of tissue (%ID/g).

A431-CCK2R (+) cells = experiment: In vitro binding and internalization assay, A431-CCK2R (+) cells; assay type: cell-based; parameters: surface binding activity / internalization activity: concentration or dose not given beside the values; conditions: for internalization activity / surface binding activity: A431-CCK2R (+) cells, 37 °C
Procedure: as §3

[3] = Histopathological examinations (H&E) of mice after radiolabeled drug administration; assay type: in vivo; conditions: light microscopy
Description: To investigate the pathological alterations in tumor-bearing mice receiving radiopharmaceuticals, […] tissues, including tumors, heart, liver, and kidneys, were collected. The specimens were first fixed using 10% buffered neutral formalin and then embedded in paraffin. Sections of 3–5 μm thickness were stained with H&E and examined using light microscopy (40 × and 20 ×).

[4] = Metabolic stability analysis (radio-HPLC) in PBS at 4 °C or FBS at 37 °C; assay type: in vitro ADME
Procedure: DOTA-PP-F11N, DOTA-INER-PP-F11N-1, and DOTA-INER-PP-F11N-2 were labeled with In-111 and Lu-177 for further experiments. The detection of free In-111 after ITLC extension was defined as 0% radiolabeling efficiency. […]
To measure the labeling efficiency, ITLC was performed on glass microfiber chromatography paper impregnated with a silica gel (Agilent Technologies, Santa Clara, CA, USA) as described previously. Briefly, the ITLC sheets were developed with 10% methanol as solvent (Rf free Lu-177 = 0, Rf Lu-177-labeled compounds = 1) and measured using a radioactive scanner (AR-2000 radio-TLC […] Imaging Scanner, Bioscan, France). The sample was mixed with acetonitrile at a 1:1 (v/v) ratio, followed by centrifugation at 16,000× g for 5 min. The resulting supernatant was subsequently analyzed using HPLC with UV (220[…]) and radio detector with a Zorbax SB-C18 column (Agilent Technologies, Santa Clara, CA, USA). The flow rate was 0.8 mL/min, with the gradient mobile phase going from 90% A […] buffer (0.1% TFA in water) and 10% B buffer (0.1% TFA in acetonitrile) to 90% B buffer […] within 20 min.

[5] = kidneys, read-out: radiotracer accumulation in the kidneys
[6] = tumor (A431-CCK2R (+)), read-out: tumor uptake of radiopharmaceuticals
[7] = 4 °C PBS, 144 h after Lu-177 labeling
[8] = Lu-177-labeled, 37 °C FBS, 144 h
[9] = labeled with Lu-177, each time point (Figure 2C, 4 °C PBS)

Compound | tumor volume at D23 (A431-CCK2R (+) tumors) [mm^3] | internalization activity (A431-CCK2R (−) cells; 1 h) [%IA/106 cells] | surface binding activity (A431-CCK2R (−) cells; 1 h) [%IA/106 cells] | internalization activity (A431-CCK2R (−) cells; 4 h) [%IA/106 cells] | radiotracer accumulation in the tumor region on NanoSPECT/CT [1] | tissue uptake at 72 h [2, 5] [%ID/g] | tissue uptake at 72 h [2, 6] [%ID/g] | internalization activity (A431-CCK2R (+) cells; 1 h) [%] | surface binding activity (A431-CCK2R (+) cells; 1 h) [%] | internalization activity (A431-CCK2R (+) cells; 4 h) [%] | surface binding activity (A431-CCK2R (+) cells; 4 h) [%] | histopathological changes in the kidneys [3] | histopathological changes in the liver and heart [3] | metabolic stability [4, 7] | metabolic stability [4, 8] | metabolic stability [4, 9] | also measured
O=C([O-])CN1CCN(CC(=O)[O-])CCN(CC(=O)[O-])CCN(CC(=O)[O-])CC1.[177Lu+3] [[^177Lu]Lu-DOTA, reference compound] | 3237.10 ± 846.25 |  |  |  |  |  |  |  |  |  |  |  |  |  |  |  | clearance of radiotracer accumulation in the urinary bladder, time after injection ([1]; NanoSPECT/CT): ≤ 24 h
CCCC[C@H](NC(=O)[C@H](Cc1c[nH]c2ccccc12)NC(=O)CNC(=O)[C@H](Cc1ccc(O)cc1)NC(=O)[C@H](C)NC(=O)[C@@H](CCC(=O)O)NC(=O)[C@@H](CCC(=O)O)NC(=O)[C@@H](CCC(=O)O)NC(=O)[C@@H](CCC(=O)O)NC(=O)[C@@H](CCC(=O)O)NC(=O)[C@@H](CCC(=O)O)NC(=O)CCCCCNC(=O)[C@H](CCCCNC(=O)CCCc1ccc(C)cc1)NC(=O)CN1CCN(CC(=O)O)CCN(CC(=O)O)CCN(CC(=O)O)CC1)C(=O)N[C@@H](CC(=O)O)C(=O)N[C@@H](Cc1ccccc1)C(N)=O [[^177Lu]Lu-DOTA-INER-PP-F11N-2, metal not drawn] ({DOTA}-K(Butanoyl(4-(4-MePh)))[Ahx][dE][dE][dE][dE][dE][dE]AYGW[Nle]DF-NH2) | 1162.60 ± 275.92 | 0.25 ± 0.04 | 0.59 ± 0.01 | 0.15 ± 0.18 | imaging of the tumor was limited | 7.4 ± 1.5 | 0.88 ± 0.25 | 41.58 ± 3.46 | 5.51 ± 0.45 | 81.26 ± 7.27 | 8.11 ± 2.65 | no significant histopathological changes | no significant histopathological changes | more than 95% | > 99% |  | radioactivity within the kidneys on NanoSPECT/CT ([1]; compared with Lu-177-labeled PP-F11N over the same period): significantly lower; enhancement of internalization activity compared with PP-F11N (A431-CCK2R (+) cells; A431 CCK2R (+) cells, compared with conventional [^177Lu]Lu-DOTA-PP-F11N): 13.7%
CCCC[C@H](NC(=O)[C@H](Cc1c[nH]c2ccccc12)NC(=O)CNC(=O)[C@H](Cc1ccc(O)cc1)NC(=O)[C@H](C)NC(=O)[C@@H](CCC(=O)O)NC(=O)[C@@H](CCC(=O)O)NC(=O)[C@@H](CCC(=O)O)NC(=O)[C@@H](CCC(=O)O)NC(=O)[C@@H](CCC(=O)O)NC(=O)[C@@H](CCC(=O)O)NC(=O)CN1CCN(CC(=O)O)CCN(CC(=O)O)CCN(CC(=O)O)CC1)C(=O)N[C@@H](CC(=O)O)C(=O)N[C@@H](Cc1ccccc1)C(N)=O [[^177Lu]Lu-DOTA-PP-F11N, metal not drawn, reference compound] | 1884.72 ± 333.13 | 1.26 ± 0.06 | 3.42 ± 0.21 | 1.29 ± 0.01 | relatively low | 14.2 ± 5.9 | 0.33 ± 0.02 | 37.37 ± 3.04 | 6.60 ± 0.17 | 71.44 ± 3.52 | 11.51 ± 3.16 | renal tubular necrosis (arrow 1), moderate renal tubular casts (arrow 2), slight renal tubular degeneration (arrow 3), and neutrophil infiltration (arrow 4); also recorded: moderate/severe renal tubular necrosis (arrow 1), moderate renal tubular casts (arrow 2), slight renal tubular degeneration (arrow 3), and slight infiltration of neutrophils (arrow 4) | no significant histopathological changes | more than 95% | below 60% |  | surface binding activity (A431-CCK2R (−) cells; 4 h): 3.24 ± 0.15 %IA/106 cells; washout of radiotracer accumulation in both kidneys, time after injection ([1]; NanoSPECT/CT, accumulation from one hour): more than 48 h; histopathological changes in the kidneys ([3]; listed as PP-F11N): renal tubular necrosis and inflammation
DOTA-(Glu)6-Ala-Tyr-Gly-Trp-Nle-Asp-Phe-NH2 [DOTA-PP-F11N, reference compound] |  |  |  |  |  |  |  |  |  |  |  |  |  |  | 56.4 ± 0.1% | more than 90% | metabolic stability ([4]; In-111-labeled, 37 °C FBS (Figure 2B)): less metabolic stability; metabolic stability ([4]; Lu-177-labeled, 37 °C FBS, 4 h): 94.6 ± 0.1%
DOTA-Lys(-4-TBA)-6-AMBA-(Glu)6-Ala-Tyr-Gly-Trp-Nle-Asp-Phe-NH2 [DOTA-INER-PP-F11N-1] |  |  |  |  |  |  |  |  |  |  |  |  |  |  | 99% | more than 90% | 
DOTA-Lys(-4-TBA)-AHA-(Glu)6-Ala-Tyr-Gly-Trp-Nle-Asp-Phe-NH2 [DOTA-INER-PP-F11N-2] |  |  |  |  |  |  |  |  |  |  |  |  |  |  |  | more than 90% | 
